Reference: patent US11697680B2, “Anti-GP73 antibodies and immunoconjugates” (CUREAB GMBH, priority 2016, dated 2023)
“Also recorded” adds a separate entry of the source.

Assays:
[1] = tested on: HuH7 (human hepatocellular carcinoma); experiment: Cell viability / proliferation with PrestoBlue reagent; assay type: cell-based; settings: 0.125 mg/ml to 2 mg/ml, after 72 hrs
Experimental: FIG. 13A Proliferation of HuH7 cells (human hepatocellular carcinoma) after treatment with different antibodies. HuH7 cells were treated with G2-2, G2-2 plus Cetuximab, mG2-2, mG2-2 plus Cetuximab, Cetuximab or control antibody each in increasing concentrations from 0.125 mg/ml to 2 mg/ml. Proliferating cells were measured after 72 hrs. […] This effect was independent of the Fc part i.e. human IgG1 in G2-2 or murin IgG2a in mG2-2 as described in Example 8.
FIG. 13B Proliferation of HuH7 cells (human hepatocellular carcinoma), 4T1 cells (murin breast carcinoma) and CaCo2 cells (human colorectal carcinoma) after treatment with different antibodies. The three cell lines were treated with G2-1, G2-1 plus Cetuximab, Cetuximab, Bevacizumab or Bevacizumab plus Cetuximab 2 mg/ml total. Proliferating cells were measured after 72 hrs.
Cells from the cell lines HuH7 (human hepatocellular carcinoma), 4T1 (murin breast carcinoma) and CaCo2 (human colorectal carcinoma) were cultured under standard conditions in Dulbecco's modified Eagle Medium (DMEM) supplemented with 10% fetal calf serum (FCS) at 37° C. with 5% CO2. […] Fluorescence was read at 615 nm to quantify cell viability. […]
To test the effect of G2-1 on different cell lines, HuH7, 4T1 and CaCo2 cells were transferred to 96 well plates. […] Cell viability was quantified after 72 hours using PrestoBlue reagent and measuring the fluorescence at 615 nm.

[2] = target: T1, peptide AA 36-55 of GP73 (Homo sapiens, UniProt Q8NBJ4); experiment: pH dependent peptide ELISA; assay type: binding; settings: pH range of 7.4 to 5.4
T1 sequence (Q8NBJ4 36-55 limits assumed): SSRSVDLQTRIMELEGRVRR
Experimental: A peptide ELISA was performed to test for pH dependency of binding to peptide AA 36-55 of GP73.
(§1) ELISA was carried out in 96 well plates coated overnight with biotinylated peptide and blocked with 2% gelatine. Horse radish peroxidase labeled antibodies G2-1 (G2-1-HRP) or G2-2 (G2-2-HRP) were applied and incubated for 1.5 hours. For competition testing non labeled G2-1 or G2-2 was added at high concentration. For pH dependent binding the antibodies were applied in phosphate buffer pH 4.4, 5.4, 6.4 or 7.4. After extensive washing a chromogenic substrate (TMB Amersham) was added to detect peroxidase. The reaction was stopped and absorbance was read at 450 nm.

[3] = tested on: HuH7 cells; experiment: Internalization of pHrodo Green labeled antibodies after pre-incubation with conditioned media containing soluble GP73; assay type: cell-based, human; settings: 10 ug/ml pHrodo Green labeled antibody pre-incubated over night, 24 h at 37° C.
Experimental: Antibody internalization was measured by FACS using the pH-sensitive dye pHrodo Green coupled to each antibody. […] The internalization of G2-2 that binds to rGP73 is not altered as described in Example 6.
Labeled antibodies were purified by size exclusion (40K MWCO). A non binding Isotype Antibody that was not labeled with pHrodo® Green STP Ester (Iso.) was used as control for background fluorescence. 10 ug/ml of each antibody was pre-incubated over night at 4° C. with either fresh culture media or conditioned media. As conditioned media served either supernatant from HEK 293 or HEK 293 GP73-myc cells cultured for 72 hours, that was dialyzed (10 k MWCO) against 1 L fresh media each. To confirm the presence of secreted soluble GP73 after dialysis supernatants were analysed by Western Blot using an anti-myc antibody. 300 ul/well of each pre-incubated antibody was given to 0.6×10^6HuH7 cells growing in 24 well plates for 24 h at 37° C. and 5% CO2. Cells were washed and analysed by FACS.

[4] = target: T1, peptide AA 36-55 of GP73; experiment: Competition peptide ELISA with HRP-labeled antibodies; assay type: binding; settings: unlabeled competing antibody at high concentration; binding antibody G2-1-HRP
Experimental: A peptide ELISA was performed using horse radish peroxidase labeled G2-1 (G2-1-HRP) or G2-2 (G2-2-HRP) as binding antibodies and G2-1 or G2-2 as competing antibodies. […] Binding to peptide AA 36-55 of GP73 served as positive control (filled circle), negative control was binding to an unrelated peptide (filled diamond) as described in Example 5.
as §1

B1: G2-2: scFv clone with human IgG1 heavy and human Igk light constant regions; VH/VL SEQ ID NO: 2 and 3; binds rGP73 AA 36-55 (antibody, V domains shown)
VH: EVQLLQSGGGVVQPGRSLRLSCAASGFTFSSYGMSWVRQAPGKGLEWVAVISYDGSNKYYADSVKGRFTISRDNSKNTLYLQMNSLRAEDTAVYYCAREGSAGMDVWGQGTTVTVSS
VL: DIQMTQPSSLSASPGASASLTCTLRSDISVGFHRIYWYQQKPGSPPQYLLRYKSDSDKQQGSGVPSRFSGSKDASANAGILLISGLQSDDEADYYCVIWHTSGVVFGGGTKVEIK
modifications: human IgG1 and Igk constant regions not cited; G2-2 heavy chain variable region (VH); G2-2 light chain variable region (VL)
cell proliferation / cell viability [1]: reduced depending on antibody concentration | pH dependency of binding to peptide AA 36-55 of GP73 [2]: Stable binding | effect of conditioned media containing soluble GP73 on antibody internalization / cell surface binding [3]: unaffected; also recorded: not altered | competition with G2-1-HRP for peptide binding [4]: Competitive inhibition
